Source: the supplement of paper PMC7877785
± gives the uncertainty stated by the source.

Assay: self-splicing fitness, log relative to wild type (ln ratio); higher = more splicing; Tetrahymena group I intron in knt gene, E. coli kanamycin selection, DiMSum; sequences stand for … in CUCUCU…GGAGGGAAAAGUUAUCAGGCAUGCACCUGGUAGCUAGUCUUUAAACCAAUAGAUUGCAUCGGUUUAAAAGGCAAGACCGUCAAAUUGCGGGAAAGGGGUCAACAGCCGUUCAGUACCAAGUCUCAGGGGAAACUUUGAGAUGGCCUUGCAAAGGGUAUGGUAAUAAGCUGACGGACAUGGUCCUAACCACGCAGCCAAGUCCUAAGUCAACAGAUCUUCUGUUGAUAUGGAUGCAGUUCACAGACUAAAUGUCGGUCGGGGAAGAUGUAUUCUUCUCAUAAGAUAUAGUCGGACCUCUCCUUAAUGGGAGCUAGCGGAUGAAGUGAUGCAACACUGGAGCCGCUGGGAACUAAUUUGUAUGCGAAAGUAUAUUGAUUAGUUUUGGAGUACUCGUGGUCG
Summary of the method: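 Pooled colonies went to amplicon sequencing on an Illumina HiSeq 2500 after six replicate transformations. The plates were LB agar with 100 μg/mL carbenicillin, 50 μM IPTG and 0.2% rhamnose, with or without 25 μg/mL kanamycin, incubated overnight at 37°C or 30°C. The E. coli BL21(DE3) library had all eight P1ex-region intron nucleotides randomised, the intron placed in the knt kanamycin-resistance gene on pET-22b(+). DiMSum fitness is the error-weighted combination of replicate fold changes, kanamycin against none, normalised to wild type.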

| Sequence | self-splicing fitness (ln) (30 °C) | self-splicing fitness (ln) (37 °C) |
| --- | --- | --- |
| GAUUAGCAAUAUUACGAACA | -0.848 ± 0.21 | 0.129 ± 0.17 |
| GAUUAGCAAUAUUACGACAC | -0.38 ± 0.17 | -1.07 ± 0.17 |
| GAUUAGCAAUAUUACGACAU | -0.469 ± 0.014 | -0.0848 ± 0.033 |
| GAUUAGCAAUAUUACGACUG | -0.181 ± 0.12 | -0.313 ± 0.14 |
| GAUUAGCAAUAUUACGACUU | 0.263 ± 0.12 | -0.24 ± 0.12 |
| GAUUAGCAAUAUUACGCAUC | -2.32 ± 0.25 | – |
| GAUUAGCAAUAUUACGCCAG | -2.17 ± 0.32 | -0.806 ± 0.34 |
| GAUUAGCAAUAUUACGCGCA | -0.548 ± 0.12 | 0.433 ± 0.11 |
| GAUUAGCAAUAUUACGCGCC | -1.37 ± 0.38 | -1.2 ± 0.34 |
| GAUUAGCAAUAUUACGCGUU | -2.52 ± 0.31 | -1.8 ± 0.34 |
| GAUUAGCAAUAUUACGCUGC | -3.07 ± 0.24 | -2.25 ± 0.35 |
| GAUUAGCAAUAUUACGCUUC | -3.55 ± 0.34 | -1.88 ± 0.29 |
| GAUUAGCAAUAUUACGGACA | -1.06 ± 0.13 | 0.179 ± 0.12 |
| GAUUAGCAAUAUUACGGAGG | -2.45 ± 0.18 | -1.81 ± 0.17 |
| GAUUAGCAAUAUUACGGAUG | -2.07 ± 0.16 | -0.375 ± 0.15 |
| GAUUAGCAAUAUUACGGCUG | -0.996 ± 0.067 | -0.513 ± 0.093 |
| GAUUAGCAAUAUUACGGCUU | -0.0112 ± 0.094 | -0.0247 ± 0.11 |
| GAUUAGCAAUAUUACGGGCA | -1.13 ± 0.13 | -0.685 ± 0.12 |
| GAUUAGCAAUAUUACGGGUG | -1.52 ± 0.097 | -0.58 ± 0.12 |
| GAUUAGCAAUAUUACGGGUU | -2.59 ± 0.16 | -1.14 ± 0.15 |
| GAUUAGCAAUAUUACGUACA | -1.89 ± 0.24 | -0.352 ± 0.15 |
| GAUUAGCAAUAUUACGUAGG | -3.05 ± 0.16 | -1.48 ± 0.15 |
| GAUUAGCAAUAUUACGUCAC | -2.91 ± 0.28 | -2.2 ± 0.37 |
| GAUUAGCAAUAUUACGUCCC | -0.907 ± 0.17 | -0.221 ± 0.17 |

| Sequence | self-splicing fitness (ln) (30 °C) | self-splicing fitness (ln) (37 °C) |
| --- | --- | --- |
| GAUUAGCAAUAUUACGUCGG | -2.66 ± 0.24 | -3.05 ± 0.29 |
| GAUUAGCAAUAUUACGUUCG | -1.94 ± 0.16 | -1.44 ± 0.13 |
| GCAAAGCAAUAUUACGAAAU | -2.4 ± 0.12 | -1.36 ± 0.11 |
| GCAAAGCAAUAUUACGAACA | -1.89 ± 0.14 | -1.73 ± 0.12 |
| GCAAAGCAAUAUUACGACAU | -0.736 ± 0.012 | -0.158 ± 0.032 |
| GCAAAGCAAUAUUACGACCC | -1.11 ± 0.073 | -0.0707 ± 0.1 |
| GCAAAGCAAUAUUACGACGU | 0.0721 ± 0.072 | 0.116 ± 0.096 |
| GCAAAGCAAUAUUACGACUG | -1.3 ± 0.13 | -0.673 ± 0.15 |
| GCAAAGCAAUAUUACGAGUC | -1.41 ± 0.14 | -2.6 ± 0.19 |
| GCAAAGCAAUAUUACGCAAC | -3.02 ± 0.15 | -1.23 ± 0.12 |
| GCAAAGCAAUAUUACGCCAA | -2.08 ± 0.48 | -2.95 ± 0.31 |
| GCAAAGCAAUAUUACGCGGG | -3.11 ± 0.21 | -2.41 ± 0.21 |
| GCAAAGCAAUAUUACGCUUC | -4.15 ± 0.33 | -2.39 ± 0.33 |
| GCAAAGCAAUAUUACGGCUA | -0.821 ± 0.07 | -0.279 ± 0.073 |
| GCAAAGCAAUAUUACGGGAC | -1.82 ± 0.11 | -1.66 ± 0.16 |
| GCAAAGCAAUAUUACGGGCG | -0.534 ± 0.079 | -0.696 ± 0.11 |
| GCAAAGCAAUAUUACGGUUU | -1.26 ± 0.063 | -0.4 ± 0.082 |
| GCAAAGCAAUAUUACGUAAU | -1.23 ± 0.061 | -0.867 ± 0.084 |
| GCAAAGCAAUAUUACGUCCA | -1.64 ± 0.12 | -0.284 ± 0.11 |
| GCAAAGCAAUAUUACGUGCC | -4.02 ± 0.25 | -1.63 ± 0.2 |
| GCAAAGCAAUAUUACGUGGA | -2.07 ± 0.14 | -2.36 ± 0.16 |
| GCAAAGCAAUAUUACGUGGC | -3.38 ± 0.31 | -2.57 ± 0.24 |
| GCAAAGCAAUAUUACGUGUG | -1.99 ± 0.046 | -0.419 ± 0.052 |
| GCAAAGCAAUAUUACGUUUA | -2.29 ± 0.12 | -1.75 ± 0.13 |

| Sequence | self-splicing fitness (ln) (30 °C) | self-splicing fitness (ln) (37 °C) |
| --- | --- | --- |
| GCACAGCAAUAUUACGAAAC | -0.701 ± 0.088 | -0.265 ± 0.12 |
| GCACAGCAAUAUUACGACGC | -0.317 ± 0.079 | -0.196 ± 0.12 |
| GCACAGCAAUAUUACGAGGC | -2.95 ± 0.12 | -3.27 ± 0.2 |
| GCACAGCAAUAUUACGAGUG | -4.09 ± 0.26 | -2.64 ± 0.17 |
| GCACAGCAAUAUUACGAUUA | -1.38 ± 0.087 | -0.549 ± 0.086 |
| GCACAGCAAUAUUACGCCAC | – | -1.97 ± 0.2 |
| GCACAGCAAUAUUACGCGGA | -1.51 ± 0.14 | -0.87 ± 0.12 |
| GCACAGCAAUAUUACGCUCG | -0.537 ± 0.066 | 0.118 ± 0.095 |
| GCACAGCAAUAUUACGCUUG | -2.89 ± 0.12 | -1.39 ± 0.11 |
| GCACAGCAAUAUUACGGCGU | -0.386 ± 0.061 | 0.414 ± 0.079 |
| GCACAGCAAUAUUACGGGAA | -1.47 ± 0.15 | -1.42 ± 0.13 |
| GCACAGCAAUAUUACGGGUG | -4.37 ± 0.23 | -2.62 ± 0.16 |
| GCACAGCAAUAUUACGGUAA | -1.06 ± 0.075 | -0.547 ± 0.079 |
| GCACAGCAAUAUUACGGUCG | -0.697 ± 0.043 | -0.246 ± 0.057 |
| GCACAGCAAUAUUACGUCCU | -0.289 ± 0.072 | 0.244 ± 0.094 |
| GCACAGCAAUAUUACGUGCA | -3.1 ± 0.12 | -2.04 ± 0.093 |
| GCACAGCAAUAUUACGUGUC | -2.98 ± 0.12 | -2.05 ± 0.17 |
| GCACAGCAAUAUUACGUUAC | -1.14 ± 0.074 | -0.837 ± 0.087 |
| GCACAGCAAUAUUACGUUAU | -1.14 ± 0.044 | -0.44 ± 0.054 |
| GCACAGCAAUAUUACGUUCA | -0.911 ± 0.054 | -0.855 ± 0.062 |
| GCACAGCAAUAUUACGUUCC | -1.85 ± 0.078 | -0.808 ± 0.11 |
| GCACAGCAAUAUUACGUUGG | -1.6 ± 0.058 | -0.74 ± 0.071 |
| GCAGAGCAAUAUUACGAAAG | -2.9 ± 0.16 | -3.24 ± 0.26 |
| GCAGAGCAAUAUUACGAAUC | -1.94 ± 0.33 | -1.15 ± 0.33 |

| Sequence | self-splicing fitness (ln) (30 °C) | self-splicing fitness (ln) (37 °C) |
| --- | --- | --- |
| GCAGAGCAAUAUUACGAUCC | -2.13 ± 0.3 | -0.288 ± 0.46 |
| GCAGAGCAAUAUUACGAUUU | -2.51 ± 0.14 | -2.16 ± 0.19 |
| GCAGAGCAAUAUUACGCGUG | -2.7 ± 0.24 | -3.6 ± 0.37 |
| GCAGAGCAAUAUUACGCUAA | – | -2.95 ± 0.43 |
| GCAGAGCAAUAUUACGGAGG | -5.06 ± 0.25 | -2.14 ± 0.15 |
| GCAGAGCAAUAUUACGGCAC | -1.64 ± 0.17 | -1.42 ± 0.26 |
| GCAGAGCAAUAUUACGGCUA | -1.53 ± 0.14 | -0.385 ± 0.11 |
| GCAGAGCAAUAUUACGGGAC | -3.3 ± 0.14 | -1.65 ± 0.11 |
| GCAGAGCAAUAUUACGUAUU | -3.82 ± 0.23 | -1.9 ± 0.16 |
| GCAUAGCAAUAUUACGAAAA | – | 0.492 ± 0.27 |
| GCAUAGCAAUAUUACGACAA | -2.27 ± 0.19 | -0.595 ± 0.13 |
| GCAUAGCAAUAUUACGACUA | -0.161 ± 0.23 | 0.00165 ± 0.2 |
| GCAUAGCAAUAUUACGAGCU | -3.2 ± 0.19 | -1.31 ± 0.15 |
| GCAUAGCAAUAUUACGAGUC | -2.44 ± 0.12 | -2.7 ± 0.17 |
| GCAUAGCAAUAUUACGCAAA | -1.88 ± 0.39 | -0.928 ± 0.24 |
| GCAUAGCAAUAUUACGCACG | -2 ± 0.17 | -2.05 ± 0.22 |
| GCAUAGCAAUAUUACGCAUA | -2.29 ± 0.15 | -1.16 ± 0.12 |
| GCAUAGCAAUAUUACGCCCG | -1.24 ± 0.32 | -0.11 ± 0.32 |
| GCAUAGCAAUAUUACGCGUC | -3.3 ± 0.2 | -2.97 ± 0.4 |
| GCAUAGCAAUAUUACGGACU | 0.021 ± 0.15 | -0.121 ± 0.15 |
| GCAUAGCAAUAUUACGGGUU | -1.79 ± 0.091 | -0.302 ± 0.088 |
| GCAUAGCAAUAUUACGGUUC | -2.21 ± 0.12 | -0.892 ± 0.13 |
| GCAUAGCAAUAUUACGUAGU | -2.22 ± 0.15 | -1.51 ± 0.16 |
| GCAUAGCAAUAUUACGUCAC | -3.21 ± 0.16 | -2.08 ± 0.22 |
